# B1: dephosphomimetic S25A SIRT2-GFP (enzyme, UniProt Q8IXJ6 1-389, looked up)
# chain: MAEPDPSHPLETQAGKVQEAQDSDADSEGGAAGGEADMDFLRNLFSQTLSLGSQKERLLDELTLEGVARYMQSERCRRVICLVGAGISTSAGIPDFRSPSTGLYDNLEKYHLPYPEAIFEISYFKKHPEPFFALAKELYPGQFKPTICHYFMRLLKDKGLLLRCYTQNIDTLERIAGLEQEDLVEAHGTFYTSHCVSASCRHEYPLSWMKEKIFSEVTPKCEDCQSLVKPDIVFFGESLPARFFSCMQSDFLKVDLLLVMGTSLQVQPFASLISKAPLSTPRLLINKEKAGQSDPFLGMIMGLGGGMDFDSKKAYRDVAWLGECDQGCLALAELLGWKKELEDLVRREHASIDAQSGAGVPNPSTSASPKKSPPPAKDEARTTEREKPQ
# notes: Sirtuin 2 (SIRT2) with the dephosphomimetic change S25A; also called S25A dephosphomimetic; source: HeLa, co-transfected, in lysate
# Biological target: T1, mCherry-TDP-43 (UniProt Q13148 1-414)
# T1 construct: TDP-43, cloned from the plasmid TDP43 NOTAG1 (Addgene #28206); also called pmCherry TDP-43; source: HeLa, co-transfected, in lysate
# T1 sequence (Q13148 whole entry): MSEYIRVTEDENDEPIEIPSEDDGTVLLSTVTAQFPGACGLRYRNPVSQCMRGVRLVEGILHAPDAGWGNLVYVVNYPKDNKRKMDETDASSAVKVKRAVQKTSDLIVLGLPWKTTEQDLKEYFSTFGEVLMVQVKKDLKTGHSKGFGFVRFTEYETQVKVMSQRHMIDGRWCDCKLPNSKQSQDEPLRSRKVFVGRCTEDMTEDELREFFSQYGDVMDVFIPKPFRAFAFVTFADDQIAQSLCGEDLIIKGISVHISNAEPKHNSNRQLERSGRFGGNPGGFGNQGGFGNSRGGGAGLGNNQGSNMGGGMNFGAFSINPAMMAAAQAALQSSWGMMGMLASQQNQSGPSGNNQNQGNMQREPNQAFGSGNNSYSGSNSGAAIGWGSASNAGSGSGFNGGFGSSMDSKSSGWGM
# Experiment: co-IP; RFP-Trap agarose beads on lysate of HeLa cells co-transfected with mCherry-TDP-43 and SIRT2-GFP variants; blot for TDP-43 and GFP
# Conditions: partners not purified
binder,measurement,value
B1,fold increase in co-precipitation relative to the WT variant,~2.5 fold

# From paper PMC8722725, “Histone H3 deacetylation promotes host cell viability for efficient infection by Listeria monocytogenes” (PLoS Pathogens, 2021)
